This data set deals with the molecule itself. Nature of the data set: anti-FLAG immunoblot of cell lysates, reducing (~105 kDa) against non-reducing (~215 kDa) SDS-PAGE. The procedure:
Transfection and Immunoblotting. CHO-TRVb cells were maintained in F12-nutrient mixture (Gibco-BRL) supplemented with 5% fetal bovine serum. An amino terminal FLAG-tagged TfR2-α cDNA was subcloned into pcDNA3 (Invitrogen, Carlsbad, Calif.). This plasmid (100 μg) was transfected into CHO-TRVb cells using Lipofectin (Gibco-BRL). For transient expression, cells were harvested 48 h after the transfection. We also isolated a stably expressing clone using G418 (200 μg/ml) selection and a standard limiting dilution method. The protein expression was confirmed by immunoblotting using anti-FLAG (M5) antibody
Tf-binding to the TfR2-α Transfected Cells. To analyze the function of TfR2-α, we stably transfected CHO-TRVb cells, which lack functional TfR, with FLAG-tagged TfR2-α. FIGS. 6A, 6B and 6C show the expression and functional analysis of TfR2-α protein. In FIG. 6A, Tf-binding to the cell surface was examined in neomycin resistant control CHO-TRVb cells (left panels), FLAG-tagged TfR2-α stably transfected cells (middle) and TRVb-1,TfR stably transfected cells (right). The cells were incubated with 5 μg/ml of biotinylated human holo-Tf in MEM a media for 30 min on ice. After washing with PBS, the cells were incubated with streptavidin-PE, and analyzed by flow cytometry. […] After transferring to a PVDF membrane, FLAG-fusion proteins were detected by immunoblotting. […]
A general note: A western blot detects proteins with antibodies after separation by electrophoresis.

B1: FLAG-tagged TfR2-α (transferrin receptor 2, α form), expressed on transfected CHO-TRVb cells (receptor)
chain: MERLWGLFQRAQQLSPRSSQTVYQRVEGPRKGHLEEEEEDGEEGAETLAHFCPMELRGPEPLGSRPRQPNLIPWAAAGRRAAPYLVLTALLIFTGAFLLGYVAFRGSCQACGDSVLVVSEDVNYEPDLDFHQGRLYWSDLQAMFLQFLGEGRLEDTIRQTSLRERVAGSAGMAALTQDIRAALSRQKLDHVWTDTHYVGLQFPDPAHPNTLHWVDEAGKVGEQLPLEDPDVYCPYSAIGNVTGELVYAHYGRPEDLQDLRARGVDPVGRLLLVRVGVISFAQKVTNAQDFGAQGVLIYPEPADFSQDPPKPSLSSQQAVYGHVHLGTGDPYTPGFPSFNQTQFPPVASSGLPSIPAQPISADIASRLLRKLKGPVAPQEWQGSLLGSPYHLGPGPRLRLVVNNHRTSTPINNIFGCIEGRSEPDHYVVIGAQRDAWGPGAAKSAVGTAILLELVRTFSSMVSNGFRPRRSLLFISWDGGDFGSVGSTEWLEGYLSVLHLKAVVYVSLDNAVLGDDKFHAKTSPLLTSLIESVLKQVDSPNHSGQTLYEQVVFTNPSWDAEVIRPLPMDSSAYSFTAFVGVPAVEFSFMEDDQAYPFLHTKEDTYENLHKVLQGRLPAVAQAVAQLAGQLLIRLSHDRLLPLDFGRYGDVVLRHIGNLNEFSGDLKARGLTLQWVYSARGDYIRAAEKLRQEIYSSEERDERLTRMYNVRIMRVEFYFLSQYVSPADSPFRHIFMGRGDHTLGALLDHLRLLRSNSSGTPGATSSTGFQESRFRRQLALLTWTLQGAANALSGDVWNIDNNF
notes: The text describes TfR2-α as residues 1-801 (cytoplasmic 1-80, transmembrane 81-104, extracellular 105-801); Expressed from pcDNA3 in TfR-deficient CHO-TRVb cells, both stably and transiently; A disulfide-linked dimer is inferred from the non-reducing immunoblot; also called TfR2 cells; TfR2-α cells; not shown: amino terminal FLAG tag
For the protein B1, the binding result is given as “binds”.
